Literature values, collected in article PMC6502704.
Read-outs that look alike come from different tables or passages of the source.

Experiments:
BMAL1 TAD (Mus musculus) [1] = target: BMAL1 TAD (Mus musculus) (UniProt Q9WTL8)
[2] = target: BMAL1 577-625 (Mus musculus) (UniProt Q9WTL8)
[3] = target: BMAL1 490-625 (Mus musculus) (UniProt Q9WTL8)
[4] = target: BMAL1 577-625 (Mus musculus) (UniProt Q9WTL8); remark: listed apart in the source
BMAL1 TAD (Mus musculus) [5] = target: BMAL1 TAD (Mus musculus) (UniProt Q9WTL8); remark: listed apart in the source

## CBP KIX (from UniProt P45481)
BMAL1 TAD (Mus musculus) [1]
  Kd: 2 µM

## CRY2 CCT (from UniProt Q9R194)
[2]
  Kd: 10 µM
[3]
  Kd: 10 µM

## CRY1 CCT (from UniProt P97784)
[4]
  Kd: 10 µM

## CRY1 (from UniProt P97784)
BMAL1 TAD (Mus musculus) [5]
  Kd: 10 µM
